Reference: article PMC4838878, “Super-complexes of adhesion GPCRs and neural guidance receptors” (Nature Communications, 2016)
Values joined by “and” are separate entries in the source; they are usually repeats but may differ in a detail not shown here. Equal entries are not always repeated.

B2: mouse Latrophilin3 Lec+Olf (Lphn3^Lec–Olf) (domain or fragment, UniProt Q80TS3-3 92-463, looked up)
chain: PIPMAVVRRELSCESYPIELRCPGTDVIMIESANYGRTDDKICDSDPAQMENIRCYLPDAYKIMSQRCNNRTQCAVVAGPDVFPDPCPGTYKYLEVQYECVPYKVEQKVFLCPGLLKGVYQSEHLFESDHQSGAWCKDPLQASDKIYYMPWTPYRTDTLTEYSSKDDFIAGRPTTTYKLPHRVDGTGFVVYDGALFFNKERTRNIVKFDLRTRIKSGEAIIANANYHDTSPYRWGGKSDIDLAVDENGLWVIYATEQNNGKIVISQLNPYTLRIEGTWDTAYDKRSASNAFMICGILYVVKSVYEDDDNEATGNKIDYIYNTDQSKDSLVDVPFPNSYQYIAAVDYNPRDNLLYVWNNYHVVKYSLDFGPLD
notes: Latrophilin3 (Lphn3, ADGRL3), mouse, residues 92-463 (lectin and olfactomedin-like domains); pHLSec vector family; treated with endoglycosidase F1 before crystallisation; Two copies (Lphn3A, Lphn3B) stand in each 1:1:2 tetramer; also called Lphn3A^Lec–Olf; Lphn3B^Lec–Olf
B3: Lphn3^Lec–Olf DDD charge-reversal mutant (D397R, D398R and D399R) (domain or fragment, mouse, UniProt Q80TS3-3 92-463, looked up)
chain: PIPMAVVRRELSCESYPIELRCPGTDVIMIESANYGRTDDKICDSDPAQMENIRCYLPDAYKIMSQRCNNRTQCAVVAGPDVFPDPCPGTYKYLEVQYECVPYKVEQKVFLCPGLLKGVYQSEHLFESDHQSGAWCKDPLQASDKIYYMPWTPYRTDTLTEYSSKDDFIAGRPTTTYKLPHRVDGTGFVVYDGALFFNKERTRNIVKFDLRTRIKSGEAIIANANYHDTSPYRWGGKSDIDLAVDENGLWVIYATEQNNGKIVISQLNPYTLRIEGTWDTAYDKRSASNAFMICGILYVVKSVYERRRNEATGNKIDYIYNTDQSKDSLVDVPFPNSYQYIAAVDYNPRDNLLYVWNNYHVVKYSLDFGPLD
notes: Latrophilin3, mouse, residues 92-463 (Lec and Olf domains) with three substitutions in the DDD loop
B4: mouse FLRT2 LRR domain (FLRT2^LRR) (domain or fragment, UniProt Q8BLU0 35-362, looked up)
chain: ACPSVCRCDRNFVYCNERSLTSVPLGIPEGVTVLYLHNNQINNAGFPAELHNVQSVHTVYLYGNQLDEFPMNLPKNVRVLHLQENNIQTISRAALAQLLKLEELHLDDNSISTVGVEDGAFREAISLKLLFLSKNHLSSVPVGLPVDLQELRVDENRIAVISDMAFQNLTSLERLIVDGNLLTNKGIAEGTFSHLTKLKEFSIVRNSLSHPPPDLPGTHLIRLYLQDNQINHIPLTAFANLRKLERLDISNNQLRMLTQGVFDHLSNLKQLTARNNPWFCDCSIKWVTEWLKYIPSSLNVRGFMCQGPEQVRGMAVRELNMNLLSCPT
notes: FLRT2, mouse, residues 35-362 (leucine-rich repeat domain); pHLSec vector family; treated with endoglycosidase F1 before crystallisation
B5: rat Unc5D ectodomain (Unc5D^ecto), biotinylated at a C-terminal Avitag (domain or fragment)
chain: not shown
modifications: biotin on the C-terminal Avitag (enzymatic)
notes: signal peptide in the construct; Unc5D, rat, residues 1-382 (all extracellular domains); The form held on the streptavidin-coated CM5 chip in SPR; not shown: Avitag, C-terminal, kept

How the values were obtained:
[1] = molecular target: B4; assay: crystal structure; Lphn3^Lec–Olf, FLRT2^LRR and Unc5D^IgIgTsp deglycosylated, mixed 2:1:1; crystals at 18 °C; 3.4 Å (PDB 5ftt); details: both partners purified
[2] = molecular target: the molecule itself; assay: crystal structure; Lphn3^Lec–Olf, FLRT2^LRR and Unc5D^Ig deglycosylated, mixed 1:1:1, SEC; crystals at 18 °C, 0.1 M sodium cacodylate pH 6.5; 6 Å (PDB 5ftu)
[3] = molecular target: B4; assay: native MS; purified proteins mixed (FLRT2^LRR:Unc5D:Lphn3^Lec–Olf 1:1:2), 10–15 μM, 0.2 M ammonium acetate pH 7.5; Q-ToF; tandem MS of the tetramer peak at 150 V collision energy; details: both partners purified
[4] = molecular target: the molecule itself; assay: as above
[5] = molecular target: T1, rat Unc5D ectodomain (Unc5D^ecto) (rat, UniProt F1LW30 31-382); assay: SEC-MALS; proteins mixed (Lphn3^Lec–Olf:FLRT:Unc5 2:1:1) and concentrated; Superdex 200 10/30, 10 mM Tris-HCl pH 7.5, 150 mM NaCl; details: both partners purified
T1 construct: signal peptide in the construct; Unc5D, rat, residues 1-382 (all extracellular domains); The form used in native MS and SEC-MALS
T1 sequence (F1LW30 31-382): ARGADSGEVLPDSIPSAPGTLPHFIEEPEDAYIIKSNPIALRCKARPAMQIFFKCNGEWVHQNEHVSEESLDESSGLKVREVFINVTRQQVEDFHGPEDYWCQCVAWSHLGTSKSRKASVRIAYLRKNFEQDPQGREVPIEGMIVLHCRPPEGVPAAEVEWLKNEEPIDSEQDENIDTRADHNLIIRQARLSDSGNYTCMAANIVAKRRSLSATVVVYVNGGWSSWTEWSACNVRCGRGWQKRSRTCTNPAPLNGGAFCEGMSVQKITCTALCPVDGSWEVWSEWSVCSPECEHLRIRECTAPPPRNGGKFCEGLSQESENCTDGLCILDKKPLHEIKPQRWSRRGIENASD

[6] = molecular target: B2; assay: crystal structure; Lphn3^Lec–Olf, FLRT2^LRR and Unc5D^Ig deglycosylated, mixed 1:1:1, SEC; crystals at 18 °C, 0.1 M sodium cacodylate pH 6.5; 6 Å (PDB 5ftu); details: both partners purified
[7] = molecular target: B3; assay: native MS; purified proteins mixed (FLRT2^LRR:Unc5D:Lphn3^Lec–Olf 1:1:2), 10–15 μM, 0.2 M ammonium acetate pH 7.5; Q-ToF; tandem MS of the tetramer peak at 150 V collision energy; details: both partners purified
[8] = molecular target: T2, Lphn3^Lec–Olf DDD mutant (D397N+D399T, artificial N-linked glycosylation site at position 397) (mouse, UniProt Q80TS3-3 92-463, D397N | D399T, artificial N-linked glycan at position 397); assay: as above; details: both partners purified
T2 construct: Latrophilin3, mouse, residues 92-463 (Lec and Olf domains) with two substitutions in the DDD loop
T2 sequence (looked up): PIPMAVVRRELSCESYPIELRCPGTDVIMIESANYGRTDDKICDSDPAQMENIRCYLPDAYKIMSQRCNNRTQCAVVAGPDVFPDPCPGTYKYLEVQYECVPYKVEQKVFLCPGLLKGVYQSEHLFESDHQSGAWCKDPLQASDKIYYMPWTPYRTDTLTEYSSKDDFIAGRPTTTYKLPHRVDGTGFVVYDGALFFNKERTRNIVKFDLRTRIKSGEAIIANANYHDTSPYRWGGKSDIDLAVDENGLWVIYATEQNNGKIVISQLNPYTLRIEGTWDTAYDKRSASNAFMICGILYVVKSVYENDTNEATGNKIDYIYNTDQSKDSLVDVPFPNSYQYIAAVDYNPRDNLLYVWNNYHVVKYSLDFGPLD

[9] = molecular target: B5; assay: SPR; Unc5D^ecto biotinylated at a C-terminal Avitag and coupled to a streptavidin-coated CM5 chip; FLRT2^LRR or FLRT2^LRR+Lphn3^Lec–Olf (1:2 molar ratio) injected; equilibrium binding, 25 °C, PBS+0.005% polysorbate 20 pH 7.5; apparent Kd, 1:1 and 1:(1:1) models, called indicative only; details: both partners purified
[10] = molecular target: T3, FLRT2^LRR+Lphn3^Lec–Olf DDD mutant (mouse, UniProt Q8BLU0 35-362; Q80TS3-3 92-463, D397N | D399T, artificial N-linked glycan at position 397); assay: as above; details: both partners purified
T3 construct: FLRT2, mouse, residues 35-362 (leucine-rich repeat domain); as m2; Latrophilin3, mouse, residues 92-463 with D397N+D399T; as m9
T3 sequence (looked up) 1: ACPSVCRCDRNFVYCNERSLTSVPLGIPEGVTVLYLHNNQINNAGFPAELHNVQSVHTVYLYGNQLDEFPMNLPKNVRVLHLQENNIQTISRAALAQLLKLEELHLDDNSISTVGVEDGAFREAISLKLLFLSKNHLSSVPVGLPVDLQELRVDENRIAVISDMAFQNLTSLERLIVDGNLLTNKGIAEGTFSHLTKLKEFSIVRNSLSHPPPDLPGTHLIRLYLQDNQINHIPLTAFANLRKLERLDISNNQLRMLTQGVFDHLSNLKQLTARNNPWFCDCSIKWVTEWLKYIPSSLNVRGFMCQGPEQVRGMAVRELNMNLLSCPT
T3 sequence (looked up) 2: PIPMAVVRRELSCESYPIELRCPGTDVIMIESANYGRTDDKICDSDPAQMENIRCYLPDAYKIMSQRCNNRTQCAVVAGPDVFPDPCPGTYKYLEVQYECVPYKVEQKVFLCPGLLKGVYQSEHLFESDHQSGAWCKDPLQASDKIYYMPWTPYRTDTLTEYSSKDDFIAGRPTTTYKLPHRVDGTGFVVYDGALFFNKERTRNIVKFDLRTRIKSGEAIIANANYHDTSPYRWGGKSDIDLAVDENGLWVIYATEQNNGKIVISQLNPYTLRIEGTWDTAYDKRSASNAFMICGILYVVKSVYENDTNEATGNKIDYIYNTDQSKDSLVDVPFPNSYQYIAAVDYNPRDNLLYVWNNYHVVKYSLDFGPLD

[11] = molecular target: T4, FLRT2^LRR+Lphn3^Lec–Olf (mixed in a 1:2 molar ratio) (mouse, UniProt Q8BLU0 35-362; Q80TS3-3 92-463); assay: as above; details: both partners purified
T4 construct: FLRT2, mouse, residues 35-362 (leucine-rich repeat domain); as m2; Latrophilin3, mouse, residues 92-463 (Lec and Olf domains); as m1; Analyte mixture of the SPR experiment; by SEC-MALS the two proteins alone form a 1:1 complex; also called FLRT2^LRR+wild-type Lphn3^Lec–Olf
T4 sequence (looked up) 1: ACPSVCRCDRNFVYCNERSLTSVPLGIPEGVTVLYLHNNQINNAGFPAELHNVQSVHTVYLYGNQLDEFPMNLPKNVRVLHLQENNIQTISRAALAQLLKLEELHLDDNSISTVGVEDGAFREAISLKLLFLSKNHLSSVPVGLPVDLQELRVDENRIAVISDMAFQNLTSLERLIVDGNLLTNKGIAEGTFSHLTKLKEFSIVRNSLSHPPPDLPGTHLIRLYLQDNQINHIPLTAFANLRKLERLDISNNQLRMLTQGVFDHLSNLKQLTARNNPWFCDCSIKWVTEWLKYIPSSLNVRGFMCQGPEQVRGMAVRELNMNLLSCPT
T4 sequence (looked up) 2: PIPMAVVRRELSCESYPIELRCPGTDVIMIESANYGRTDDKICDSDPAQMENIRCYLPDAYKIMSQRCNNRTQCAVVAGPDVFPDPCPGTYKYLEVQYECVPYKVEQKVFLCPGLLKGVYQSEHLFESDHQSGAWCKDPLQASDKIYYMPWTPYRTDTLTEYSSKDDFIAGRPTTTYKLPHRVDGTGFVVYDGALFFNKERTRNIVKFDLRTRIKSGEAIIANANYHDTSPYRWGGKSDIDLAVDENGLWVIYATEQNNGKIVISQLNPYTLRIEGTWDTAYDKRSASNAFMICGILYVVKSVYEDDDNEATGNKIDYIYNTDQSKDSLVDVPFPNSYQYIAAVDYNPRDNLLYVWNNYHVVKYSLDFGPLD

[12] = molecular target: B4; assay: crystal structure; Lphn3^Lec–Olf, FLRT2^LRR and Unc5D^Ig deglycosylated, mixed 1:1:1, SEC; crystals at 18 °C, 0.1 M sodium cacodylate pH 6.5; 6 Å (PDB 5ftu); details: both partners purified

B1: rat Unc5D two Ig and TSP1 domains (Unc5D^IgIgTSP) (domain or fragment)
chain: not shown
notes: signal peptide in the construct; Unc5D, rat, residues 1-307 (Ig1, Ig2 and TSP1 domains); Deglycosylated before crystallisation
B1: binds [1].

For B2, the binding result [2] was “binds” and the “stoichiometry N” value [3] was 1 and 2.

B3: binds [4].

B4 was tested, and the “stoichiometry N” value [5] was 1, the binding result [6] was “binds” and the binding result [7] was “binds”. The binding result [8] was “binds” and the Kd [9] was 460 nM.

B5 was tested, and the binding result [10] was “binds” and the Kd [11] was 94 nM.

B6: rat Unc5D Ig domain 1 (Unc5D^Ig) (domain or fragment)
chain: not shown
notes: signal peptide in the construct; Unc5D, rat, residues 1-161 (Ig domain 1); Treated with endoglycosidase F1 before crystallisation
B6: binds [12].
